These results are taken from the RNAGym collection of RNA variant scans (doi:10.1093/molbev/msab373).

B1: Azoarcus group I ribozyme (parent)
chain: GUGCCUUGCGCCGGGAAACCACGCAAGGGAUGGUGUCAAAUUCGGCGAAACCUAAGCGCCCGCCCGGGCGUAUGGCAACGCCGAGCCAAGCUUCGGCGCCUGCGCCGAUGAAGGUGUAGAGACUAGACGGCACCCACCUAAGGCAAACGCUAUGGUGAAGGCAUAGUCCAGGGAGUGGCGAAAGUCACACAAACCGG

In this data set the parent is B1. Nature of the data set: reverse-splicing fitness (ratio to wild type); higher = more active; in vitro selection; Mg2+ level not given. The method, boiled down:
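An in vitro group I ribozyme library with randomized positions was T7-transcribed and gel-purified. In triplicate, 10 pmol RNA in EPPS pH 7.5 was reacted with 50 pmoles of a 30-nt RNA substrate for 1 h at 37 °C across several added MgCl2 levels (1–48 mM), then stopped with EDTA. Products were reverse transcribed from a substrate-complementary primer, PCR-amplified and sequenced (HiSeq 4000). Fitness is a variant's read proportion after selection over that before, normalised to wild type.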
C82U A120G A145U C150A C169U U176C: the reverse-splicing fitness worked out at 0.014.

For the variant C82U A120G A145U C150A C169U U176A, the reverse-splicing fitness was 0.022.

As to C82U A120G A145U C150A C169U U176G, the reverse-splicing fitness came to 0.00395.

Regarding C82U A120G A145G C150A C169U U176A, the reverse-splicing fitness is 0.0217.

Take C82U A120G A145G C150A C169U U176G: the reverse-splicing fitness turned out to be 0.0051.

For C82U A120G A145G C150A C169U U176C, the reverse-splicing fitness came out at 0.0166.

Regarding C82U A120C A145U U176G, the reverse-splicing fitness is 0.0114.

Regarding C82U A120C A145U U176C, the reverse-splicing fitness came out at 0.0723.

Turning to C82U A120C A145U U176A, the reverse-splicing fitness worked out at 0.0458.

As to C82U A120G A145C C150U C169U U176C, the reverse-splicing fitness was determined as 0.00975.

As to C82U A120G A145C C150U C169U U176G, the reverse-splicing fitness was 0.00351.

With C82U A120G A145C C150U C169U U176A, the reverse-splicing fitness stood at 0.0235.

Turning to C82U A120C A145U C150U U176A, the reverse-splicing fitness amounted to 0.0328.

In the case of C82U A120C A145U C150U U176G, the reverse-splicing fitness turned out to be 0.00795.

Turning to C82U A120C A145U C150U U176C, the reverse-splicing fitness came to 0.0537.

As to C82U A120G A145U C150G U176A, the reverse-splicing fitness was 0.00575.

On to C82U A120G A145U C150G U176G, for which the reverse-splicing fitness turned out to be 0.00275.

For the variant C82U A120G A145U C150G U176C, the reverse-splicing fitness worked out at 0.00808.

For C82U A120G A145C C150G C169A U176A, the reverse-splicing fitness was 0.00717.

For C82U A120G A145C C150G C169A U176G, the reverse-splicing fitness came to 0.00406.

For C82U A120G A145C C150G C169A U176C, the reverse-splicing fitness came out at 0.00565.

With C82U A120G A145G C150A C169A U176A, the reverse-splicing fitness turned out to be 0.018.

For C82U A120G A145G C150A C169A U176C, the reverse-splicing fitness came out at 0.0191.

C82U A120G A145G C150A C169A U176G: the reverse-splicing fitness was found to be 0.00457.

On to C82U A120G A145U C169A U176G, for which the reverse-splicing fitness is 0.00294.

C82U A120G A145U C169A U176A: the reverse-splicing fitness was found to be 0.00994.

For C82U A120G A145U C169A U176C, the reverse-splicing fitness came to 0.0105.

Take C82U A120G A145U C150G C169A U176C: the reverse-splicing fitness is 0.00949.

Turning to C82U A120G A145U C150G C169A U176G, the reverse-splicing fitness worked out at 0.00411.

As to C82U A120G A145U C150G C169A U176A, the reverse-splicing fitness turned out to be 0.00927.

Take C82U A120G A145U C150G C169G U176A: the reverse-splicing fitness came to 0.00669.

Consider C82U A120G A145U C150G C169G U176C, for which the reverse-splicing fitness was 0.00534.

For the variant C82U A120G A145U C150G C169G U176G, the reverse-splicing fitness is 0.00361.

As for C82U A120G A145U U176C, the reverse-splicing fitness came out at 0.0139.

For the variant C82U A120G A145U U176A, the reverse-splicing fitness turned out to be 0.0127.

For the variant C82U A120G A145U U176G, the reverse-splicing fitness amounted to 0.00403.

For the variant C82U A120G A145G C150U C169G, the reverse-splicing fitness is 0.0218.

C82U A120G A145G C150U C169A: the reverse-splicing fitness came to 0.0162.

As for C82U A120G A145G C150U C169U, the reverse-splicing fitness amounted to 0.0183.

For C82U A120G C150U C169G U176A, the reverse-splicing fitness is 0.015.

For C82U A120G C150U C169G U176C, the reverse-splicing fitness was found to be 0.0189.

As to C82U A120G C150U C169G U176G, the reverse-splicing fitness is 0.00429.

C82U A120C C150G C169G U176G: the reverse-splicing fitness amounted to 0.00432.

Turning to C82U A120C C150G C169G U176A, the reverse-splicing fitness is 0.00705.

For C82U A120C C150G C169G U176C, the reverse-splicing fitness was determined as 0.00447.

Consider C82U A120G A145G C150G C169A, for which the reverse-splicing fitness turned out to be 0.00944.

With C82U A120G A145G C150G C169G, the reverse-splicing fitness is 0.00862.

In the case of C82U A120G A145G C150G C169U, the reverse-splicing fitness is 0.0101.

As to C82U A120G C150A C169U U176A, the reverse-splicing fitness was found to be 0.0211.

For the variant C82U A120G C150A C169U U176G, the reverse-splicing fitness was 0.00606.

C82U A120G C150A C169U U176C: the reverse-splicing fitness is 0.0174.

On to C82U A120G C150G C169U U176G, for which the reverse-splicing fitness amounted to 0.00521.

Regarding C82U A120G C150G C169U U176A, the reverse-splicing fitness came to 0.0125.

For the variant C82U A120G C150G C169U U176C, the reverse-splicing fitness came out at 0.0118.

On to C82U A120G A145C C150G C169U U176A, for which the reverse-splicing fitness came out at 0.0158.

C82U A120G A145C C150G C169U U176G: the reverse-splicing fitness is 0.00443.

Regarding C82U A120G A145C C150G C169U U176C, the reverse-splicing fitness is 0.0104.

In the case of C82U A120G A145U C150U C169U U176G, the reverse-splicing fitness was found to be 0.00327.

In the case of C82U A120G A145U C150U C169U U176C, the reverse-splicing fitness amounted to 0.0154.

In the case of C82U A120G A145U C150U C169U U176A, the reverse-splicing fitness amounted to 0.022.

On to C82U A120C A145U C150U C169U U176A, for which the reverse-splicing fitness is 0.0148.

On to C82U A120C A145U C150U C169U U176C, for which the reverse-splicing fitness was found to be 0.0144.

Consider C82U A120C A145U C150U C169U U176G, for which the reverse-splicing fitness is 0.00397.

C82U A120G A145G C150G: the reverse-splicing fitness amounted to 0.00813.

For C82U A120G A145G C150U, the reverse-splicing fitness was determined as 0.0208.

Turning to C82U A120G A145G C150A, the reverse-splicing fitness came out at 0.00966.

On to C82U A120G A145U C150U C169U, for which the reverse-splicing fitness is 0.0143.

Take C82U A120G A145U C150U C169A: the reverse-splicing fitness came to 0.014.

Turning to C82U A120G A145U C150U C169G, the reverse-splicing fitness came out at 0.0171.

C82U A120G A145C C150A C169G: the reverse-splicing fitness was 0.00758.

Regarding C82U A120G A145C C150A C169A, the reverse-splicing fitness was found to be 0.00745.

As for C82U A120G A145C C150A C169U, the reverse-splicing fitness came out at 0.00698.

Turning to C82U A120C A145U C169A U176A, the reverse-splicing fitness was 0.00753.

Take C82U A120C A145U C169A U176G: the reverse-splicing fitness came to 0.00364.

Take C82U A120C A145U C169A U176C: the reverse-splicing fitness amounted to 0.00593.

Regarding C82U A120C C150G U176C, the reverse-splicing fitness stood at 0.0118.

In the case of C82U A120C C150G U176A, the reverse-splicing fitness was 0.00635.

On to C82U A120C C150G U176G, for which the reverse-splicing fitness was found to be 0.00299.

Turning to C82U A120G C150U U176G, the reverse-splicing fitness came out at 0.00504.

As for C82U A120G C150U U176C, the reverse-splicing fitness amounted to 0.0148.

In the case of C82U A120G C150U U176A, the reverse-splicing fitness was found to be 0.0106.

Consider C82U A120G C169A U176C, for which the reverse-splicing fitness amounted to 0.0213.

Take C82U A120G C169A U176A: the reverse-splicing fitness was 0.0194.

As for C82U A120G C169A U176G, the reverse-splicing fitness is 0.00354.
